How the values were obtained:
human fibrinogen = target: T1, human fibrinogen (human, UniProt P02671 20-629; P02675 31-491; P02679 27-437); test: solid phase adherence assay, 1 µg Fg per well, absorbance 590 nm
T1 construct: The three chains are general knowledge about fibrinogen; also called human Fg
T1 sequence 1: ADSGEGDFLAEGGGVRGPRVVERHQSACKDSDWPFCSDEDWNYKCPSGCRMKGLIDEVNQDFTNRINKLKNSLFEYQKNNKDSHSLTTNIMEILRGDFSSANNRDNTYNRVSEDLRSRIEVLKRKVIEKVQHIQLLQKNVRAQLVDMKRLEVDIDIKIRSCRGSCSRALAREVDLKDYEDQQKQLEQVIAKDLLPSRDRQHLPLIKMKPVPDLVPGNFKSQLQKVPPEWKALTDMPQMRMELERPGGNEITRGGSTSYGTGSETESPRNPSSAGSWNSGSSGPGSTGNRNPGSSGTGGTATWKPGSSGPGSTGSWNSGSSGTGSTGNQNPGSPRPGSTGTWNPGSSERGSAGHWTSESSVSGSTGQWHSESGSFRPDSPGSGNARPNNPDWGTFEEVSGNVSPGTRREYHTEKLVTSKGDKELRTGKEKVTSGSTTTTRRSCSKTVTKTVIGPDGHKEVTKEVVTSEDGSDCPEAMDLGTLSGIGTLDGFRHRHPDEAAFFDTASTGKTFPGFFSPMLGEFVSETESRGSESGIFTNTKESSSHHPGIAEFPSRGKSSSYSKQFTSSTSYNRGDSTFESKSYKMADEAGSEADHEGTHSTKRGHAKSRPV
T1 sequence 2: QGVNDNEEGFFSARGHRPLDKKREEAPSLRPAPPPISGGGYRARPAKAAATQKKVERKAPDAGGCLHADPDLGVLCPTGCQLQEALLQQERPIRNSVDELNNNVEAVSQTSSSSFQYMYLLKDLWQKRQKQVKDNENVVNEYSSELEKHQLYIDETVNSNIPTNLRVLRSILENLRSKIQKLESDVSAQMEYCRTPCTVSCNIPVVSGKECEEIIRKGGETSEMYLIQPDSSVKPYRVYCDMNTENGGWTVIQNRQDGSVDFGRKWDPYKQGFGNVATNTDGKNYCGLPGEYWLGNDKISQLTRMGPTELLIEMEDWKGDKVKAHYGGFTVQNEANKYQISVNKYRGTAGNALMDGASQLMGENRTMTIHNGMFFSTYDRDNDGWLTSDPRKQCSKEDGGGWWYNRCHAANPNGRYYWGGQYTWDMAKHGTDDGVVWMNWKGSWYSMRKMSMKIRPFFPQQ
T1 sequence 3: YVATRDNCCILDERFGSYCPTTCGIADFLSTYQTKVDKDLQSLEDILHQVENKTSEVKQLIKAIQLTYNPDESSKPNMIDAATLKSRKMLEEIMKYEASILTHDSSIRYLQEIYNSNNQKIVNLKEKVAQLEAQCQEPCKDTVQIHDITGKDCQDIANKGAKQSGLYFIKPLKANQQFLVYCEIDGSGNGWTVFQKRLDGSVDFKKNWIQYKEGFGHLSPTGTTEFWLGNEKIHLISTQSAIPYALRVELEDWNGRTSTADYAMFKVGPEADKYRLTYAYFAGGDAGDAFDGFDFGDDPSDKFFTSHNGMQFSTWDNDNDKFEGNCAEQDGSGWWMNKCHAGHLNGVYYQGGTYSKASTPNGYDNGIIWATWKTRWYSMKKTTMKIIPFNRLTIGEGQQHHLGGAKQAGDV

bovine fibrinogen = target: T2, bovine fibrinogen (bovine, UniProt P02672 20-615; P02676 1-468; P12799 25-444); test: as above
T2 construct: The three chains are general knowledge about fibrinogen; also called bovine Fg
T2 sequence 1: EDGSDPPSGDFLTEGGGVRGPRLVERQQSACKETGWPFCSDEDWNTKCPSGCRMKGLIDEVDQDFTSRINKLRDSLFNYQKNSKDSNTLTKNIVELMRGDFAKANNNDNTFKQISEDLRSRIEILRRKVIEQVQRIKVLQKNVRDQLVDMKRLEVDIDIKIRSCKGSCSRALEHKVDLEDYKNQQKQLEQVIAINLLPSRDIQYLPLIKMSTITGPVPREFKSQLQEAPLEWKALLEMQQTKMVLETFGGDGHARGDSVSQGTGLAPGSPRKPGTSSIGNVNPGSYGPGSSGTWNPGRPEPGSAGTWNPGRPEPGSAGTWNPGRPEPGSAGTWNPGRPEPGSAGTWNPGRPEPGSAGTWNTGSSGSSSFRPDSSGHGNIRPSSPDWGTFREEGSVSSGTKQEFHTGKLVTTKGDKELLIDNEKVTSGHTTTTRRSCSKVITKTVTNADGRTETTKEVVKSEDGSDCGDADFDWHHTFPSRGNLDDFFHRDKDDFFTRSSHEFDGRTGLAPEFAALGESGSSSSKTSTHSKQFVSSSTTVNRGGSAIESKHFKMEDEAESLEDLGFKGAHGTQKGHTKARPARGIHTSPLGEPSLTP
T2 sequence 2: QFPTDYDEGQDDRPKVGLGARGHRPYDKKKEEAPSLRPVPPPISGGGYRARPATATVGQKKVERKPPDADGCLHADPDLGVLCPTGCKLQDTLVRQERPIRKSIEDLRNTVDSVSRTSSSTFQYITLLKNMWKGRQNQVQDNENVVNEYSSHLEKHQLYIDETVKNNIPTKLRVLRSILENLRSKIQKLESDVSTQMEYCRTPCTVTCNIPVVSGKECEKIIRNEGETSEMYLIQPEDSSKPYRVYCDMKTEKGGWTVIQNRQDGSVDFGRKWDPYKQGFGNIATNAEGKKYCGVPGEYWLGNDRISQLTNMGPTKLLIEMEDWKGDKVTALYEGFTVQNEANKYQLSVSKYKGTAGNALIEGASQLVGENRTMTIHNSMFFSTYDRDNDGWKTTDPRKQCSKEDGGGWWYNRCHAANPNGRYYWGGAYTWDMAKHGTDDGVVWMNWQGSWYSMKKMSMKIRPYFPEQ
T2 sequence 3: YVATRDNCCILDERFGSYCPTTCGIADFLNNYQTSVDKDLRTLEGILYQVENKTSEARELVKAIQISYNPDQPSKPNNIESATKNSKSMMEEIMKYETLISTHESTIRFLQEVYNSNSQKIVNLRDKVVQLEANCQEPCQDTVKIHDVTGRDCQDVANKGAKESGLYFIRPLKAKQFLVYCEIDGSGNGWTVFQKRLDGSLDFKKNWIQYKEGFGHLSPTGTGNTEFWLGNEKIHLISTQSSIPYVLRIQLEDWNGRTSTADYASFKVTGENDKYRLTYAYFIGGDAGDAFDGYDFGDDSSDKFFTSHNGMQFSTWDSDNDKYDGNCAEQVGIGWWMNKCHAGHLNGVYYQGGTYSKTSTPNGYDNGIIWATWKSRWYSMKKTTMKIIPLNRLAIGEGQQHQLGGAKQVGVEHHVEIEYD

B1: SpsD of S. pseudintermedius ED99, full-length, expressed on L. lactis MG1363 (pOri23) (other)
chain: SEVSATTQEHNVETEQTKTEGELTTEVAQQAVSESAPIAENMQKTTSVASENAKEVTASDSTQEVTKTEAKDTATMKDSEIAQPVSEVNKPVTQTAAPVAEPSTANKQTSPRQVQELTAPMDTKVINVENGTDVTSKVKVEKSSITGHQNKDKTYHQSNTVNPHKAERVTLNYDWSFENGIKAGDYFDFQLSDNVDTNGISTIKKVPHIMDSQNSEQIIAYGEINENNRVRYRFMDYVNQKENLKGKLSLNLFIKPDKVQDEGKITVTSQLGKEMTSQEFDIKYIDGVKSPSGITLNGRLDELSKADQSFTHYSIFKPKHNNLTNVTLRGTVSNNAQQNEKNGQVNVYEYIGQGELPQSAYANVNDTKQFNDITKSMKSIKNNSNGYEITFDMNKDNHPYIIVYQGHFNNNAKDFDFSTNATGYQNLNQSEYSYYWPYNYSFNLTWDNGVAFYSNNASGEGNDKPVPPTYGYSPTVNTIQDTHADYPVMTFQQPGTLEETEDSMPITTLTESGEDRGENTSPIIETTEDSQPVEFEEETNHGIQDVTLHADAVDFEEETNHGEQDTVHHSDVVEYDEDTTTGMLTGAISDHTTEEGTMEYTTDGLLIEFDDEMNPNVSGQYDDITTDTIEESSHIDTFTELESEFGQHDGIVTFEEDTIVEKPKTEKGNRVPLVIDLSTPKHNHQFNIQPTDPNIDTSATYRIGNFVWRDEDHNGVQNDGEHGLEGVLVTLKTADGVVLNTTTSDANGHYQFTNVQKGKYIVEFTTPEGYEATSKHTTANTEKDSDGLIANIDVTQDDMSIDAGFFPLENWNPQPEPKNPDDREKPAPEQPDVPQPEPKNPDDREKPAPEQPDVPQPEPKNPDDREKPAPEQPDVPQPEPKNPDDKEKPAPEQPDVPQPEPKNPDDKEKPAPEQPDAPQPKPMLPGEKVKPKPTHPGEAMQTTPQDKSTSQTDEALPKTGESSSQSSALIFGGLLSLLGLGLLRRSSKQNRSSMK
notes: also called L. lactis expressing SpsD; putative MSCRAMM SpsD
- binding result (human fibrinogen): binds
- binding result (bovine fibrinogen): binds

Source: patent US20180237480A1 (UNIVERSITY OF EDINBURGH, published 2018)
